{"source": "paper PMC10583550", "biological_target": "NtFD1-Flag (Nicotiana tabacum)", "test": "native gel or EMSA; extract of N. benthamiana leaves expressing NtFD1-Flag loaded directly onto a native PAGE gel, then western blotting; native protein marker GAPDH used for size"}
{"substance": "NtFD1-Flag (natural protein)", "values": [{"measurement": "stoichiometry N", "value": 4}]}
